Drawing on US20230242922, this text covers activity for five substances.

What all share (experiment): cell_activity
For data set [1], the system named is T1, AN197 TALEN pair (synthetic construct).
T1 sequence: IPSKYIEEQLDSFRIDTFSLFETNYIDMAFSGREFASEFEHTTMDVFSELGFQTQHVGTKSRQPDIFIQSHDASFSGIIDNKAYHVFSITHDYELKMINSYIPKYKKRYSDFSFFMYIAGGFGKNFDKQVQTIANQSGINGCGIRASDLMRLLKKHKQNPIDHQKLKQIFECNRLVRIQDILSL
The note with it: primary T cells, GCD.

Data set [2] relates to T2, AN197 TALEN, purified, mPEG-5K-SH PEGylated (synthetic construct).
T2 sequence: T1 sequence
The following applies: HEK293FT.

For data set [3], the target named is FokI TALEN pair (Flavobacterium okeanokoites) (UniProt P14870). The note with it: by Sanger sequencing.
UniProt P14870, sequence (P14870 384-579): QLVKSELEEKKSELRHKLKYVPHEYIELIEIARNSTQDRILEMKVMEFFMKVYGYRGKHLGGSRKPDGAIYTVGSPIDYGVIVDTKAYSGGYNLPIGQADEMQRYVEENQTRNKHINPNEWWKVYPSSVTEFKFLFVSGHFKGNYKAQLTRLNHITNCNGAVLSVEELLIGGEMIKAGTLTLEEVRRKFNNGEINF

In the case of AAVS1 locus TALEN target, the activity in data set [1] was more than 80 % editing; in data set [2], less than 75 % editing; in data set [3], 100 % editing.
In data set [1], B2M target came in with an activity of more than 80 % editing.
Take LAG3 target: in data set [1], the activity is more than 80 % editing.
Consider PD-1 target, for which, in data set [1], the activity was more than 80 % editing.
Take TIM3 target: the activity in data set [1] is more than 80 % editing.
